The series concerns the target His1 (position 1, -----HTASDA). As to the kind of experiment: potentiometry. Conditions: not stated (electrode with a thermo-compensating apparatus); not stated (no added salt; distilled water with about 1 mM HCl/NaOH); none (distilled water acidified with 1 mM HCl, titrated with 1 mM NaOH); free peptide, 0.27 mM, 5 mL, in water.

Take HTASDAAAAAALTAANAAAAAAASMA: the pKa – broadly, the pH at which an ionisable group is half protonated – stood at 6.0.

For the origin of these results see PMC3466273.
